Laboratory results from publication PMC11276676.
One block for each substance: values may come before it.

What was measured:
Test in all cases: AUC; sedimentation velocity, absorbance detection, 20 °C, 20 mM Hepes-NaOH with 1 mM TCEP, without (pH 6.79) or with (pH 6.87) 150 mM NaCl, 42,000 rpm, protein 1.30-1.53 and 2.73-5.98 µM; monomer to dimer
[1] = molecular target: Helicobacter pylori adenylosuccinate synthetase with His6-tag fused on its N-terminus (Helicobacter pylori (reference strain 26695)) (UniProt P56137)
[2] = molecular target: Helicobacter pylori adenylosuccinate synthetase with His6-tag on the C-terminus (Helicobacter pylori (reference strain 26695)) (UniProt P56137)
[3] = molecular target: wild-type Helicobacter pylori adenylosuccinate synthetase (Helicobacter pylori (reference strain 26695)) (UniProt P56137)

- stoichiometry N [1]: 2
Substance: Helicobacter pylori adenylosuccinate synthetase with His6-tag fused on its N-terminus (from UniProt P56137 1-411) (enzyme)

- stoichiometry N [2]: 2
Substance: Helicobacter pylori adenylosuccinate synthetase with His6-tag on the C-terminus (from UniProt P56137 1-411) (enzyme)

- stoichiometry N [3]: 2
Substance: wild-type Helicobacter pylori adenylosuccinate synthetase (from UniProt P56137 1-411) (enzyme)
